In patent publication US20260201008A1, “SECRETIN-DERIVED GLP1R SELECTIVE AGONISTS” (GUBRA A/S, priority 2023, published 2026):
Numbered stars: 1 amine (or outer) side, 2 acyl side, 3 side chain; on linkers, the order of the positions; unused ones are H or OH. Square brackets hold non-standard residues; d marks the D form. Side chains are listed from the residue outwards. Ends that are not written are not given here. * marks the point of attachment. C20 diacid = O=C(O)CCCCCCCCCCCCCCCCCCC(=O)*; γGlu = O=C(O)[C@H](CCC(=O)[*:2])N[*:1]; AEEA = NCCOCCOCC(=O)O; Aib = CC(C)(N)C(=O)O

What was measured:
[1] = target: human GLP-1 receptor (hGLP1R) (human, UniProt P43220 24-463); experiment: cell-based or functional assay
[2] = target: human secretin receptor (hSCTR) (human, UniProt P47872 23-440); experiment: cell-based or functional assay
Chain of human secretin receptor (hSCTR) (P47872 23-440): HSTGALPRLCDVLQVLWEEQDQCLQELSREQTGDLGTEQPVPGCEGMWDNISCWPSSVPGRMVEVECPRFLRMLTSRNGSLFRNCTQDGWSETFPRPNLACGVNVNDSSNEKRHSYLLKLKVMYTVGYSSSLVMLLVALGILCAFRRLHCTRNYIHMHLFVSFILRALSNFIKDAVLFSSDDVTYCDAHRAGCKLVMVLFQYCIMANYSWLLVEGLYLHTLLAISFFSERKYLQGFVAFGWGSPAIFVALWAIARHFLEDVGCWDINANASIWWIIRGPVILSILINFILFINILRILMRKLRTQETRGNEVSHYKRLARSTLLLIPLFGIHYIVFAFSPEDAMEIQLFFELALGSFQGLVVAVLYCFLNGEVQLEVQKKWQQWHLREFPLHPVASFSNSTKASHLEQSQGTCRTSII

Row | Binder | pEC50 hGLPR1 [1] | pEC50 hSCTR [2]
1 | H[Aib]EGTFTSDWSFLLEGAALQRFIQWLV-NH2 (N-terminus assumed; SMILES CC[C@H](C)[C@H](NC(=O)[C@H](Cc1ccccc1)NC(=O)[C@H](CCCNC(=N)N)NC(=O)[C@H](CCC(N)=O)NC(=O)[C@H](CC(C)C)NC(=O)[C@H](C)NC(=O)[C@H](C)NC(=O)CNC(=O)[C@H](CCC(=O)O)NC(=O)[C@H](CC(C)C)NC(=O)[C@H](CC(C)C)NC(=O)[C@H](Cc1ccccc1)NC(=O)[C@H](CO)NC(=O)[C@H](Cc1c[nH]c2ccccc12)NC(=O)[C@H](CC(=O)O)NC(=O)[C@H](CO)NC(=O)[C@@H](NC(=O)[C@H](Cc1ccccc1)NC(=O)[C@@H](NC(=O)CNC(=O)[C@H](CCC(=O)O)NC(=O)C(C)(C)NC(=O)[C@@H](N)Cc1c[nH]cn1)[C@@H](C)O)[C@@H](C)O)C(=O)N[C@@H](CCC(N)=O)C(=O)N[C@@H](Cc1c[nH]c2ccccc12)C(=O)N[C@@H](CC(C)C)C(=O)N[C@H](C(N)=O)C(C)C) [SEQ ID NO: 190] | 10.2 -log M | 7 -log M
2 | H[Aib]EGTFTSDWSWLLEGAALQRFIQWLV-NH2 (N-terminus assumed; SMILES CC[C@H](C)[C@H](NC(=O)[C@H](Cc1ccccc1)NC(=O)[C@H](CCCNC(=N)N)NC(=O)[C@H](CCC(N)=O)NC(=O)[C@H](CC(C)C)NC(=O)[C@H](C)NC(=O)[C@H](C)NC(=O)CNC(=O)[C@H](CCC(=O)O)NC(=O)[C@H](CC(C)C)NC(=O)[C@H](CC(C)C)NC(=O)[C@H](Cc1c[nH]c2ccccc12)NC(=O)[C@H](CO)NC(=O)[C@H](Cc1c[nH]c2ccccc12)NC(=O)[C@H](CC(=O)O)NC(=O)[C@H](CO)NC(=O)[C@@H](NC(=O)[C@H](Cc1ccccc1)NC(=O)[C@@H](NC(=O)CNC(=O)[C@H](CCC(=O)O)NC(=O)C(C)(C)NC(=O)[C@@H](N)Cc1c[nH]cn1)[C@@H](C)O)[C@@H](C)O)C(=O)N[C@@H](CCC(N)=O)C(=O)N[C@@H](Cc1c[nH]c2ccccc12)C(=O)N[C@@H](CC(C)C)C(=O)N[C@H](C(N)=O)C(C)C) [SEQ ID NO: 191] | 10.1 -log M | 7.2 -log M
3 | H[Aib]EGTFTSDVSTLK([AEEA-AEEA-γGlu-C20 diacid])ETAASQRFLEHLV-NH2 [SEQ ID NO: 20] | 10.7 -log M | 6.4 -log M
4 | H[Aib]EGTFTSDWS[Aib]LLEGAALQRFIQWLV-NH2 (N-terminus assumed; SMILES CC[C@H](C)[C@H](NC(=O)[C@H](Cc1ccccc1)NC(=O)[C@H](CCCNC(=N)N)NC(=O)[C@H](CCC(N)=O)NC(=O)[C@H](CC(C)C)NC(=O)[C@H](C)NC(=O)[C@H](C)NC(=O)CNC(=O)[C@H](CCC(=O)O)NC(=O)[C@H](CC(C)C)NC(=O)[C@H](CC(C)C)NC(=O)C(C)(C)NC(=O)[C@H](CO)NC(=O)[C@H](Cc1c[nH]c2ccccc12)NC(=O)[C@H](CC(=O)O)NC(=O)[C@H](CO)NC(=O)[C@@H](NC(=O)[C@H](Cc1ccccc1)NC(=O)[C@@H](NC(=O)CNC(=O)[C@H](CCC(=O)O)NC(=O)C(C)(C)NC(=O)[C@@H](N)Cc1c[nH]cn1)[C@@H](C)O)[C@@H](C)O)C(=O)N[C@@H](CCC(N)=O)C(=O)N[C@@H](Cc1c[nH]c2ccccc12)C(=O)N[C@@H](CC(C)C)C(=O)N[C@H](C(N)=O)C(C)C) [SEQ ID NO: 192] | 9.9 -log M | 7.3 -log M
5 | H[Aib]EGTFTSDWSYLLEGAALQRFIQWLV-NH2 (N-terminus assumed; SMILES CC[C@H](C)[C@H](NC(=O)[C@H](Cc1ccccc1)NC(=O)[C@H](CCCNC(=N)N)NC(=O)[C@H](CCC(N)=O)NC(=O)[C@H](CC(C)C)NC(=O)[C@H](C)NC(=O)[C@H](C)NC(=O)CNC(=O)[C@H](CCC(=O)O)NC(=O)[C@H](CC(C)C)NC(=O)[C@H](CC(C)C)NC(=O)[C@H](Cc1ccc(O)cc1)NC(=O)[C@H](CO)NC(=O)[C@H](Cc1c[nH]c2ccccc12)NC(=O)[C@H](CC(=O)O)NC(=O)[C@H](CO)NC(=O)[C@@H](NC(=O)[C@H](Cc1ccccc1)NC(=O)[C@@H](NC(=O)CNC(=O)[C@H](CCC(=O)O)NC(=O)C(C)(C)NC(=O)[C@@H](N)Cc1c[nH]cn1)[C@@H](C)O)[C@@H](C)O)C(=O)N[C@@H](CCC(N)=O)C(=O)N[C@@H](Cc1c[nH]c2ccccc12)C(=O)N[C@@H](CC(C)C)C(=O)N[C@H](C(N)=O)C(C)C) [SEQ ID NO: 189] | 10.8 -log M | 6.8 -log M
6 | H[Aib]EGTFTSDWSELLEGAALQRFIQWLV-NH2 (N-terminus assumed; SMILES CC[C@H](C)[C@H](NC(=O)[C@H](Cc1ccccc1)NC(=O)[C@H](CCCNC(=N)N)NC(=O)[C@H](CCC(N)=O)NC(=O)[C@H](CC(C)C)NC(=O)[C@H](C)NC(=O)[C@H](C)NC(=O)CNC(=O)[C@H](CCC(=O)O)NC(=O)[C@H](CC(C)C)NC(=O)[C@H](CC(C)C)NC(=O)[C@H](CCC(=O)O)NC(=O)[C@H](CO)NC(=O)[C@H](Cc1c[nH]c2ccccc12)NC(=O)[C@H](CC(=O)O)NC(=O)[C@H](CO)NC(=O)[C@@H](NC(=O)[C@H](Cc1ccccc1)NC(=O)[C@@H](NC(=O)CNC(=O)[C@H](CCC(=O)O)NC(=O)C(C)(C)NC(=O)[C@@H](N)Cc1c[nH]cn1)[C@@H](C)O)[C@@H](C)O)C(=O)N[C@@H](CCC(N)=O)C(=O)N[C@@H](Cc1c[nH]c2ccccc12)C(=O)N[C@@H](CC(C)C)C(=O)N[C@H](C(N)=O)C(C)C) [SEQ ID NO: 193] | 10.6 -log M | 7.9 -log M
7 | H[Aib]EGTFTSDWSVLLEGAALQRFIQWLV-NH2 (N-terminus assumed; SMILES CC[C@H](C)[C@H](NC(=O)[C@H](Cc1ccccc1)NC(=O)[C@H](CCCNC(=N)N)NC(=O)[C@H](CCC(N)=O)NC(=O)[C@H](CC(C)C)NC(=O)[C@H](C)NC(=O)[C@H](C)NC(=O)CNC(=O)[C@H](CCC(=O)O)NC(=O)[C@H](CC(C)C)NC(=O)[C@H](CC(C)C)NC(=O)[C@@H](NC(=O)[C@H](CO)NC(=O)[C@H](Cc1c[nH]c2ccccc12)NC(=O)[C@H](CC(=O)O)NC(=O)[C@H](CO)NC(=O)[C@@H](NC(=O)[C@H](Cc1ccccc1)NC(=O)[C@@H](NC(=O)CNC(=O)[C@H](CCC(=O)O)NC(=O)C(C)(C)NC(=O)[C@@H](N)Cc1c[nH]cn1)[C@@H](C)O)[C@@H](C)O)C(C)C)C(=O)N[C@@H](CCC(N)=O)C(=O)N[C@@H](Cc1c[nH]c2ccccc12)C(=O)N[C@@H](CC(C)C)C(=O)N[C@H](C(N)=O)C(C)C) [SEQ ID NO: 188] | 10.1 -log M | 7.5 -log M

Now from value to binder:

Row | pEC50 hGLPR1 [1] | pEC50 hSCTR [2] | Binder
8 | 10.9 -log M | 7.7 -log M | H[Aib]EGTFTSDYSYLK([AEEA-AEEA-γGlu-C20 diacid])EEA[Aib]LQRFLEHLV-NH2 [SEQ ID NO: 196]
9 | 10.8 -log M | 8.1 -log M | H[Aib]EGTFTSDYS[Aib]LLEGAALQRFIQWLV-NH2 (N-terminus assumed; SMILES CC[C@H](C)[C@H](NC(=O)[C@H](Cc1ccccc1)NC(=O)[C@H](CCCNC(=N)N)NC(=O)[C@H](CCC(N)=O)NC(=O)[C@H](CC(C)C)NC(=O)[C@H](C)NC(=O)[C@H](C)NC(=O)CNC(=O)[C@H](CCC(=O)O)NC(=O)[C@H](CC(C)C)NC(=O)[C@H](CC(C)C)NC(=O)C(C)(C)NC(=O)[C@H](CO)NC(=O)[C@H](Cc1ccc(O)cc1)NC(=O)[C@H](CC(=O)O)NC(=O)[C@H](CO)NC(=O)[C@@H](NC(=O)[C@H](Cc1ccccc1)NC(=O)[C@@H](NC(=O)CNC(=O)[C@H](CCC(=O)O)NC(=O)C(C)(C)NC(=O)[C@@H](N)Cc1c[nH]cn1)[C@@H](C)O)[C@@H](C)O)C(=O)N[C@@H](CCC(N)=O)C(=O)N[C@@H](Cc1c[nH]c2ccccc12)C(=O)N[C@@H](CC(C)C)C(=O)N[C@H](C(N)=O)C(C)C) [SEQ ID NO: 197]
10 | 10.6 -log M | 8.3 -log M | H[Aib]EGTFTSDYSVLLEGAALQRFIQWLV-NH2 (N-terminus assumed; SMILES CC[C@H](C)[C@H](NC(=O)[C@H](Cc1ccccc1)NC(=O)[C@H](CCCNC(=N)N)NC(=O)[C@H](CCC(N)=O)NC(=O)[C@H](CC(C)C)NC(=O)[C@H](C)NC(=O)[C@H](C)NC(=O)CNC(=O)[C@H](CCC(=O)O)NC(=O)[C@H](CC(C)C)NC(=O)[C@H](CC(C)C)NC(=O)[C@@H](NC(=O)[C@H](CO)NC(=O)[C@H](Cc1ccc(O)cc1)NC(=O)[C@H](CC(=O)O)NC(=O)[C@H](CO)NC(=O)[C@@H](NC(=O)[C@H](Cc1ccccc1)NC(=O)[C@@H](NC(=O)CNC(=O)[C@H](CCC(=O)O)NC(=O)C(C)(C)NC(=O)[C@@H](N)Cc1c[nH]cn1)[C@@H](C)O)[C@@H](C)O)C(C)C)C(=O)N[C@@H](CCC(N)=O)C(=O)N[C@@H](Cc1c[nH]c2ccccc12)C(=O)N[C@@H](CC(C)C)C(=O)N[C@H](C(N)=O)C(C)C) [SEQ ID NO: 198]
11 | 10.6 -log M | 8 -log M | H[Aib]EGTFTSDYSGLLEGAALQRFIQWLV-NH2 (N-terminus assumed; SMILES CC[C@H](C)[C@H](NC(=O)[C@H](Cc1ccccc1)NC(=O)[C@H](CCCNC(=N)N)NC(=O)[C@H](CCC(N)=O)NC(=O)[C@H](CC(C)C)NC(=O)[C@H](C)NC(=O)[C@H](C)NC(=O)CNC(=O)[C@H](CCC(=O)O)NC(=O)[C@H](CC(C)C)NC(=O)[C@H](CC(C)C)NC(=O)CNC(=O)[C@H](CO)NC(=O)[C@H](Cc1ccc(O)cc1)NC(=O)[C@H](CC(=O)O)NC(=O)[C@H](CO)NC(=O)[C@@H](NC(=O)[C@H](Cc1ccccc1)NC(=O)[C@@H](NC(=O)CNC(=O)[C@H](CCC(=O)O)NC(=O)C(C)(C)NC(=O)[C@@H](N)Cc1c[nH]cn1)[C@@H](C)O)[C@@H](C)O)C(=O)N[C@@H](CCC(N)=O)C(=O)N[C@@H](Cc1c[nH]c2ccccc12)C(=O)N[C@@H](CC(C)C)C(=O)N[C@H](C(N)=O)C(C)C) [SEQ ID NO: 195]
